We go through one substance from publication PMC8750077.

The target in test [1] is HPV18-E6 (4C-4S) version of E6 fused with His-tag (human papillomavirus type 18 (HPV18)) (UniProt P06463).
For test [2] the target is unchanged. This is another data set of the same source.

Chain of UniProt P06463 (P06463 whole entry, the tested form may be a part): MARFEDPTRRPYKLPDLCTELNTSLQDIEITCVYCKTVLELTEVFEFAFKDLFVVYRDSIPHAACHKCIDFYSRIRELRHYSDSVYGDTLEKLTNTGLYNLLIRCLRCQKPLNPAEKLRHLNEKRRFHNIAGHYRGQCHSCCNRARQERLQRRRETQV

Consider “untagged USP46 (from UniProt P62068 1-366) (enzyme)”, for which, in test [1], the deubiquitinase activity of recombinant USP46 (singly purified His-USP46, 70 nM) on the ubiquitin substrate after simple mixing with recombinant HPV-E6 (4 uM); USP46 alone 0.39 FU/min is 0.58 FU/min. Also, the deubiquitinase activity on Ub-AMC of the E6:USP46 complex purified on Ni-NTA and concentrated (USP46-UAF1 complex in the same assay: 0.83 FU/min) in test [2] was 0.78 FU/min.
